Reference: patent US6906179B2, “Antibody to SNIP1” (The General Hospital Corporation, priority 1999, dated 2005)
Read-outs that look alike come from different tables or passages of the source.

What was measured:
nigral dopamine neurons = settings: cited from earlier work
[1] = test system: HsN3 and Smad1 localization; assay: Localization of HsN3 and Smad1 in transfected COS cells, confocal microscopy; assay type: cell-based
Description: Since the activation of BMP type I receptors, either by BMP ligands in the presence of the type II receptor, or by the presence of a point mutation (Q233D), can induce the translocation of Smad1 from the cytoplasm to the nucleus (Hoodless et al., 1996, Wang et al., unpublished data), we examined whether the intracellular localization of the Smad1 interactor HsN3 is also regulated by the constitutively activated BMP type I receptor ALK3Q233D. The localization of endogenous HsN3 in COS cells in the presence or absence of activated Smad1 was studied by immunocytochemistry and confocal microscopy (FIG. 28). In untransfected COS cells, weak signals from endogenous HsN3 were detected in both the cytoplasm and the nucleus, with a monoclonal anti-HsN3 antibody and a FITC-conjugated anti-mouse secondary antibody (FIG. 28A). […]
To directly study how BMPs regulate the localization of HsN3, COS cells were transfected with the wild type BMP type I receptor ALK3 the BMP type II receptor and Smad1. […] In cells not treated with BMP7, the endogenous HsN3 produced a weak signal in both the cytoplasm and the nucleus that was detected with a FITC conjugated secondary antibody (FIG. 28D1), while the expressed Smad1 also produced a signal located throughout the transfected cells that was detected by Rodamine conjugated secondary antibody (FIG. 28D2). […]

SNIP-1 protein level = assay: ALK3Q233D-induced degradation of SNIP-1 in transfected COS cells, Western blot; assay type: cell-based; settings: COS cells transfected with Smad1, DPC4, antizyme and BMP type II and type I (ALK3) receptors, treated with BMP7 (not shown)
Description: The novel Smad1 interactor is a nuclear proteip (termed as Smad1 Nuclear Interactor Protein 1, SNIP-1, SEQ ID No. 3), with a carboxyterminal domain that is highly homologous to the aminoterminus of the nuclear inhibitor of protein phosphatase 1 (NIPP-1) (Wang & Lechleider, unpublished) (FIG. 31A & C). NIPP-1 (VanEynde et al., 1995) is known to be rapidly processed into smaller heat-stable intermediates, a process that may be mediated by proteasome (see Discussion in Jagiello et al., 1995). SNIP-1 is a strong interactor of Smad1, that also binds to both antizyme and HsN3 in the yeast two-hybrid assays (FIG. 311B).
Forty-eight hours after transfection, COS cells were lysed in an equal volume of lysis buffer (300 ul/plate), and the total protein concentration of each sample was measured. No major difference in protein concentration was detected among the lysates. The protein level of SNIP-1 in 100 ug of total protein lysate was determined by Western blot using anti-T7 monoclonal antibody. […] Such a decrease is dependent upon the coexpression of Smad1, DPC4 and antizyme, since replacing each of these three proteins with an unrelated protein (β galactosidase) abolishes such a decrease in ALK3Q233D transfected cells (FIG. 31D, top panel, lanes 9-14). […]

rat sympathetic neurons = assay: OP-1 induced dendritic growth of rat sympathetic neurons; assay type: cell-based; settings: sympathetic neurons
Protocol: If Smad1 and DPC4 signal through proteasome mediated proteolysis, proteasome inhibitors should block the signaling of BMPs. We thus directly tested the effects of the proteasome inhibitors on the signaling pathways of BMPs that signal via Smad1 activation. […] The EC50 for the inhibitory activity of lactacystin was ˜100 nM and maximal effects were obtained with 4-6 hour pretreatments (not shown).
To determine the time course of sensitivity to lactacystin with respect to the signaling pathway of OP-1, lactacystin was added to the media at various time points after the addition of OP-1 (FIG. 32, bottom panel B).

B1: GDNF: glial cell line-derived neurotrophic factor, member of the TGF-β superfamily (protein, UniProt P39905 78-211, looked up)
Glial cell line-derived …: SPDKQMAVLPRRERNRQAAAANPENSRGKGRRGQRGKNRGCVLTAIHLNVTDLGLGYETKEELIFRYCSGSCDAAETTYDKILKNLSRNRRLVSDKVGQACCRPIAFDDDLSFLDDNLVYHILRKHSAKRCGCI
In the case of B1, the “nigral cell death and atrophy” value (nigral dopamine neurons; intracerebral administration for 4 weeks following lesioning) is listed as “completely prevented nigral cell death and atrophy” and the “nigral cell death and atrophy” value (nigral dopamine neurons; single 10 μg injection at 1 week post-lesion) is listed as “partial protective effect”.

B2: TGF-β3: TGF-β isoform (protein, UniProt P10600 301-412, looked up)
Transforming growth factor …: ALDTNYCFRNLEENCCVRPLYIDFRQDLGWKWVHEPKGYYANFCSGPCPYLRSADTTHSTVLGLYNTLNPEASASPCCVPQDLEPLTILYYVGRTPKVEQLSNMVVKSCKCS
In the case of B2, the “nigral cell death or atrophy” value (nigral dopamine neurons; similar dosing strategies) is given as “no effect”.

B3: BMP7: OP-1 (BMP7), bone morphogenetic protein, TGF-β family ligand (protein, UniProt P18075 293-431, looked up)
Bone morphogenetic protein 7: STGSKQRSQNRSKTPKNQEALRMANVAENSSSDQRQACKKHELYVSFRDLGWQDWIIAPEGYAAYYCEGECAFPLNSYMNATNHAIVQTLVHFINPETVPKPCCAPTQLNAISVLYFDDSSNVILKKYRNMVVRACGCH
With B3 the HsN3 signal ([1]; 30 mins after BMP7 treatment (20 ng/ml)) was “only a nuclear HsN3 signal of increased intensity was detected”, the “endogenous HsN3 and overexpressed Smad1 localization” value ([1]; 60 mins after BMP7 treatment (20 ng/ml)) was “accumulated in the nucleus” and the “degradation of SNIP-1” value (SNIP-1 protein level) was “degradation of SNIP-1 has also been observed”. For the same molecule, the “Smad1 localization upon OP-1 treatment” value (rat sympathetic neurons) was “rapid nuclear translocation of Smad1”.
